Assay results as given in publication PMC10104637, “Phosphorylation of USP29 by CDK1 Governs TWIST1 Stability and Oncogenic Functions” (Advanced Science, 2023).

Biological target: T1, GST-USP29 (UniProt Q9HBJ7 1-922)
T1 construct: USP29 cloned into pGEX-4T-1; also called purified GST-USP29; GST-USP29 WT; source: E. coli BL21, purified (Pierce Glutathione Agarose)
T1 sequence (looked up): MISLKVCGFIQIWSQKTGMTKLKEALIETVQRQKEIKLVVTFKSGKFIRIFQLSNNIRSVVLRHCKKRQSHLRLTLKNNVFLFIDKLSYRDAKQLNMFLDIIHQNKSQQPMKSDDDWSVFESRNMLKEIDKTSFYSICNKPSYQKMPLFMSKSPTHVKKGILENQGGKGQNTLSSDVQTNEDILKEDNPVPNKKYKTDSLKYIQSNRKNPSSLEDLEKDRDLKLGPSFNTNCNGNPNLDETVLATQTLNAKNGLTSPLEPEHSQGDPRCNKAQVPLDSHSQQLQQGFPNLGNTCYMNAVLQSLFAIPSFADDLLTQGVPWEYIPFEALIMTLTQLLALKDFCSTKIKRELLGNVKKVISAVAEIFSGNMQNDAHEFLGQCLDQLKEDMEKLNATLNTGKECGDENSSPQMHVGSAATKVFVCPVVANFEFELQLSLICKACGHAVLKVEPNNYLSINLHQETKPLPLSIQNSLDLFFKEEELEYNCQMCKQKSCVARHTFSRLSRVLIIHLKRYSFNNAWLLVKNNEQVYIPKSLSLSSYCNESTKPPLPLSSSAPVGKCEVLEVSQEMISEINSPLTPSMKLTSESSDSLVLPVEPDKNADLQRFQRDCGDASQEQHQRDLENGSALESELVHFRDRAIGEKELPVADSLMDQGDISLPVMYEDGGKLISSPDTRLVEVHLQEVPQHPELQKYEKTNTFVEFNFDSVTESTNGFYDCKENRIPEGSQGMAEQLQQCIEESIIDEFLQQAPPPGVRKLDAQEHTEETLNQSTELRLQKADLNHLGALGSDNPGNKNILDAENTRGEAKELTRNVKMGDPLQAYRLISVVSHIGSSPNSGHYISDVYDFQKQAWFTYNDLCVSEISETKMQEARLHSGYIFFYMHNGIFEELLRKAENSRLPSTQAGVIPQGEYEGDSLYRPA
Experiment: pull-down; GST or GST-USP29 bound to Pierce Glutathione Agarose incubated with the purified His-tagged protein overnight at 4 °C; beads washed four times with PBS; western blot
Settings: both partners purified

B1: His-TWIST1 (natural protein, UniProt Q15672 1-202, looked up)
chain: MMQDVSSSPVSPADDSLSNSEEEPDRQQPPSGKRGGRKRRSSRRSAGGGAGPGGAAGGGVGGGDEPGSPAQGKRGKKSAGCGGGGGAGGGGGSSSGGGSPQSYEELQTQRVMANVRERQRTQSLNEAFAALRKIIPTLPSDKLSKIQTLKLAARYIDFLYQVLQSDELDSKMASCSYVAHERLSYAFSVWRMEGAWSMSASH
notes: TWIST1 cloned into PET28A; also called PET28A-TWIST1; source: E. coli BL21, purified
  binding result: binds
